From article PMC12102759

B1: TPTE2 peptide 94-109 (Phosphatidylinositol 3,4,5-trisphosphate 3-phosphatase TPTE2), 16-mer library wild type / TLN1 PTB (TLN1 Phosphotyrosine-binding (PTB) domain, residues 309-401) (parent)
chain 1: DLIFTDSKLYIPLEYR
chain 2: GVSFFLVKEKMKGKNKLVPRLLGITKECVMRVDEKTKEVIQEWNLTNIKRWAASPKSFTLDFGDYQDGYYSVQTTEGEQIAQLIAGYIDIILK
B2: SH3BP2 peptide 410-425 (SH3 domain-binding protein 2), 16-mer library wild type / TNKS ANK (TNKS 12 ANK repeats, residues 174-649) (parent)
chain 1: LPHLQRSPPDGQSFRS
chain 2: TGVPAVSGALRELLEACRNGDVSRVKRLVDAANVNAKDMAGRKSSPLHFAAGFGRKDVVEHLLQMGANVHARDDGGLIPLHNACSFGHAEVVSLLLCQGADPNARDNWNYTPLHEAAIKGKIDVCIVLLQHGADPNIRNTDGKSALDLADPSAKAVLTGEYKKDELLEAARSGNEEKLMALLTPLNVNCHASDGRKSTPLHLAAGYNRVRIVQLLLQHGADVHAKDKGGLVPLHNACSYGHYEVTELLLKHGACVNAMDLWQFTPLHEAASKNRVEVCSLLLSHGADPTLVNCHGKSAVDMAPTPELRERLTYEFKGHSLLQAAREADLAKVKKTLALEIINFKQPQSHETALHCAVASLHPKRKQVTELLLRKGANVNEKNKDFMTPLHVAAERAHNDVMEVLHKHGAKMNALDTLGQTALHRAALAGHLQTCRLLLSYGSDPSIISLQGFTAAQMGNEAVQQILSESTPIRTSD

Variants of: B1
Test: proteomic peptide phage display deep mutational scan (ProP-PD DMS): M13 P8 16-mer library selected against immobilised GST-tagged bait for four days (rounds), NGS of the eluted pools per day and pseudo-replica
Conditions: with TLN1 PTB (TLN1 Phosphotyrosine-binding (PTB) domain, residues 309-401); bait immobilised on MaxiSorp plates (10 µg), library pre-cleared on GST, 2 h binding at 4 °C, five washes; one round per day, days 1-4; value from days 2 and 3; keep out of graded; scale: average fractional NGS count over selection days 2 and 3

Row | Variant | screen value
1 | chain 1 DLIFTDSKLYNPLEYR [chain 1 I11N] | 7.83e-05
2 | chain 1 DLIFTDSKLYKPLEYR [chain 1 I11K] | 3.45e-05
3 | chain 1 DLIFTDSKLYYPLEYR [chain 1 I11Y] | 5.14e-05
4 | chain 1 DLTFTDSKLYIPLEYR [chain 1 I3T] | 0.00253
5 | chain 1 DLKFTDSKLYIPLEYR [chain 1 I3K] | 0.00351
6 | chain 1 DLYFTDSKLYIPLEYR [chain 1 I3Y] | 0.000244
7 | chain 1 DLIFTDSKLYIELEYR [chain 1 P12E] | 0
8 | chain 1 DLIFDDSKLYIPLEYR [chain 1 T5D] | 0
9 | chain 1 DLIFSDSKLYIPLEYR [chain 1 T5S] | 4.81e-05
10 | chain 1 DLIFRDSKLYIPLEYR [chain 1 T5R] | 0
11 | chain 1 DLIFTDSLLYIPLEYR [chain 1 K8L] | 0.000141
12 | chain 1 DLIFTDSGLYIPLEYR [chain 1 K8G] | 0.000416
13 | chain 1 DLIFTDSPLYIPLEYR [chain 1 K8P] | 0.0034
14 | chain 1 DLIFTDSRLYIPLEYR [chain 1 K8R] | 0.00105
15 | chain 1 DLIFTDSVLYIPLEYR [chain 1 K8V] | 0
16 | chain 1 DLIWTDSKLYIPLEYR [chain 1 F4W] | 0.00189
17 | chain 1 DLIFTDAKLYIPLEYR [chain 1 S7A] | 0
18 | chain 1 DLIFTDSKMYIPLEYR [chain 1 L9M] | 4.46e-05
19 | chain 1 DLIFTDSKLYIPLEHR [chain 1 Y15H] | 0.000355
20 | chain 1 DLIFTDSKLYIPLEMR [chain 1 Y15M] | 0.00159

Row | Variant | screen value
21 | chain 1 DLIFTDSKLYIPLEER [chain 1 Y15E] | 0.00244
22 | chain 1 DLIFTDSKLYIPLEWR [chain 1 Y15W] | 0.00208
23 | chain 1 DLIFTDSKLYIPLELR [chain 1 Y15L] | 0.00052
24 | chain 1 DLIFTDSKLYIPLETR [chain 1 Y15T] | 0.0011
25 | chain 1 DLIFTDSKLYIPLPYR [chain 1 E14P] | 0.00048
26 | chain 1 DLIFTDSKLYIPLWYR [chain 1 E14W] | 2.8e-05
27 | chain 1 DLIFTDSKLYIPLHYR [chain 1 E14H] | 9.43e-05
28 | chain 1 DLIFTDSKLYIPLAYR [chain 1 E14A] | 0.00053
29 | chain 1 DLIFTDSKLYIPHEYR [chain 1 L13H] | 2.74e-05
30 | chain 1 DLIFTDSKLYIPNEYR [chain 1 L13N] | 6.62e-05
31 | chain 1 DLIFTDSKLYIPDEYR [chain 1 L13D] | 3.05e-05
32 | chain 1 DLIFTDSKLYIPYEYR [chain 1 L13Y] | 0
33 | chain 1 SLIFTDSKLYIPLEYR [chain 1 D1S] | 0.000249
34 | chain 1 ILIFTDSKLYIPLEYR [chain 1 D1I] | 0
35 | chain 1 HLIFTDSKLYIPLEYR [chain 1 D1H] | 0
36 | chain 1 DLIFTDSKLWIPLEYR [chain 1 Y10W] | 0.00022
37 | chain 1 DLIFTDSKLFIPLEYR [chain 1 Y10F] | 6.96e-05
38 | chain 1 DQIFTDSKLYIPLEYR [chain 1 L2Q] | 0
39 | chain 1 DYIFTDSKLYIPLEYR [chain 1 L2Y] | 0.000116
40 | chain 1 DTIFTDSKLYIPLEYR [chain 1 L2T] | 0.000185

Variants of: B2
Test: as above
Conditions: with TNKS ANK (TNKS 12 ANK repeats, residues 174-649); bait immobilised on MaxiSorp plates (10 µg), library pre-cleared on GST, 2 h binding at 4 °C, five washes; one round per day, days 1-4; value from days 2 and 3; keep out of graded; scale: average fractional NGS count over selection days 2 and 3

Row | Variant | screen value
41 | chain 1 LPRLQRSPPDGQSFRS [chain 1 H3R] | 3.96e-05
42 | chain 1 LPSLQRSPPDGQSFRS [chain 1 H3S] | 9.56e-05
43 | chain 1 LPKLQRSPPDGQSFRS [chain 1 H3K] | 5.51e-05
44 | chain 1 LPDLQRSPPDGQSFRS [chain 1 H3D] | 4.19e-05
45 | chain 1 LPHLQTSPPDGQSFRS [chain 1 R6T] | 0
46 | chain 1 LPHLQVSPPDGQSFRS [chain 1 R6V] | 4.06e-05
47 | chain 1 LPHLQQSPPDGQSFRS [chain 1 R6Q] | 0
48 | chain 1 LPHLQKSPPDGQSFRS [chain 1 R6K] | 0
49 | chain 1 LPHLQASPPDGQSFRS [chain 1 R6A] | 0
50 | chain 1 LPHLQESPPDGQSFRS [chain 1 R6E] | 0
51 | chain 1 LPHLQRSPPHGQSFRS [chain 1 D10H] | 0
52 | chain 1 LPHLQRSPPFGQSFRS [chain 1 D10F] | 0
53 | chain 1 LPHLQRSPPRGQSFRS [chain 1 D10R] | 4.95e-05
54 | chain 1 LPHLQRSPPNGQSFRS [chain 1 D10N] | 0
55 | chain 1 LPHLQRSPPSGQSFRS [chain 1 D10S] | 7.49e-05
56 | chain 1 LPHLQRSPPWGQSFRS [chain 1 D10W] | 7.2e-05
57 | chain 1 LPHLQRSPPMGQSFRS [chain 1 D10M] | 3.11e-05
58 | chain 1 LPHLQRSPPDDQSFRS [chain 1 G11D] | 0.000101
59 | chain 1 LPHLQRSPPDRQSFRS [chain 1 G11R] | 2.25e-05
60 | chain 1 LPHLQRSPPDLQSFRS [chain 1 G11L] | 0
61 | chain 1 LPHLQRSPPDEQSFRS [chain 1 G11E] | 0
62 | chain 1 LPHLQRSPPDAQSFRS [chain 1 G11A] | 0
63 | chain 1 LKHLQRSPPDGQSFRS [chain 1 P2K] | 3.03e-05
64 | chain 1 LYHLQRSPPDGQSFRS [chain 1 P2Y] | 4.27e-05

Row | Variant | screen value
65 | chain 1 LWHLQRSPPDGQSFRS [chain 1 P2W] | 0
66 | chain 1 LPHLQRSPPDGQWFRS [chain 1 S13W] | 0.000125
67 | chain 1 LPHLQRSPPDGQKFRS [chain 1 S13K] | 0
68 | chain 1 LPHLQRSPPDGQRFRS [chain 1 S13R] | 3.04e-05
69 | chain 1 LPHLQRSGPDGQSFRS [chain 1 P8G] | 8.51e-05
70 | chain 1 LPHLQRSFPDGQSFRS [chain 1 P8F] | 0.000116
71 | chain 1 LPHLQRSWPDGQSFRS [chain 1 P8W] | 7.62e-05
72 | chain 1 LPHLQRSPPDGQSFYS [chain 1 R15Y] | 0.000124
73 | chain 1 LPHLQRAPPDGQSFRS [chain 1 S7A] | 8.68e-05
74 | chain 1 LPHLQRGPPDGQSFRS [chain 1 S7G] | 0
75 | chain 1 LPHLQRWPPDGQSFRS [chain 1 S7W] | 1.87e-05
76 | chain 1 LPHLQRRPPDGQSFRS [chain 1 S7R] | 8.27e-05
77 | chain 1 LPHLQRSPPDGQSRRS [chain 1 F14R] | 2.25e-05
78 | chain 1 LPHLQRSPPDGRSFRS [chain 1 Q12R] | 6.14e-05
79 | chain 1 LPHLQRSPPDGDSFRS [chain 1 Q12D] | 6.89e-05
80 | chain 1 LPHKQRSPPDGQSFRS [chain 1 L4K] | 3.15e-05
81 | chain 1 LPHRQRSPPDGQSFRS [chain 1 L4R] | 2.25e-05
82 | chain 1 LPHLIRSPPDGQSFRS [chain 1 Q5I] | 7.42e-05
83 | chain 1 LPHLRRSPPDGQSFRS [chain 1 Q5R] | 6.18e-05
84 | chain 1 LPHLQRSPMDGQSFRS [chain 1 P9M] | 0.000123
85 | chain 1 LPHLQRSPVDGQSFRS [chain 1 P9V] | 0
86 | chain 1 LPHLQRSPIDGQSFRS [chain 1 P9I] | 4.06e-05
87 | chain 1 LPHLQRSPLDGQSFRS [chain 1 P9L] | 0
